Laboratory results: patent US20190192484A1 (UNIVERSITY OF CHICAGO, published 2019)

Biological target: Vimentin (endogenous, WT fibroblasts) (mouse, UniProt P20152 2-466)
Assay: proximity ligation assay in WT fibroblasts with anti-BAD and anti-Vimentin (FIG. 8F)

Sequence of Vimentin (endogenous, WT fibroblasts) (P20152 2-466 limits assumed): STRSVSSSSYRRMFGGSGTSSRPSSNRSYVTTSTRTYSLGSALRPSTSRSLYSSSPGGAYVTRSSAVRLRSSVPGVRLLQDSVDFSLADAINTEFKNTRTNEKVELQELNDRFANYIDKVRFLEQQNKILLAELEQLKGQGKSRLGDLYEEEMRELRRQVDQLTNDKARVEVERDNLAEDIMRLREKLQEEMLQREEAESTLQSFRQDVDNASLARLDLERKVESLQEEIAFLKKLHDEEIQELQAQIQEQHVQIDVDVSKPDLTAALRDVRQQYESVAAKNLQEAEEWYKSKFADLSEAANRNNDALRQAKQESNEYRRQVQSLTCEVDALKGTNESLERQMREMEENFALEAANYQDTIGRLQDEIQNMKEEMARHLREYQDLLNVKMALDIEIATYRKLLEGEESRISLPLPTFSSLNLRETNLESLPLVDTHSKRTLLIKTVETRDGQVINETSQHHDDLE

B1: BCL-2-associated death promoter (BAD), endogenous in WT fibroblasts (other, mouse, UniProt Q61337 1-204, looked up)
chain: MGTPKQPSLAPAHALGLRKSDPGIRSLGSDAGGRRWRPAAQSMFQIPEFEPSEQEDASATDRGLGPSLTEDQPGPYLAPGLLGSNIHQQGRAATNSHHGGAGAMETRSRHSSYPAGTEEDEGMEEELSPFRGRSRSAPPNLWAAQRYGRELRRMSDEFEGSFKGLPRPKSAGTATQMRQSAGWTRIIQSWWDRNLGKGGSTPSQ
notes: Endogenous protein inside fixed cells (microscopy, proximity ligation assay); also called WT BAD
- binding result: no binding
